Source: article PMC9228748, “The Denaturant- and Mutation-Induced Disassembly of Pseudomonas aeruginosa Hexameric Hfq Y55W Mutant” (Molecules, 2022)
Where “and” joins values, the source holds several entries; their conditions need not be identical. Identical values can stand only once.

What was measured:
[1] = target: the molecule itself; experiment: dynamic light scattering; pH 1.4, 100 µM protein (monomer), 25 °C
[2] = target: the molecule itself; experiment: crystal structure; hanging drop vapor diffusion at 25 °C; 7% PEG 2000 MME, 2% MPD, 50 mM Tris-HCl pH 6.5; asymmetric part holds three subunits, hexamer by crystallographic symmetry

B1: Pseudomonas aeruginosa Hfq Y55W mutant (natural protein)
chain: MSKGHSLQDPYLNTLRKERVPVSIYLVNGIKLQGQIESFDQFVILLKNTVSQMVWKHAISTVVPSRPVRLPSGDQPAEPGNA
notes: also called Y55W (hexamer); Pae Hfq Y55W
stoichiometry N [1]: 3 and 2
stoichiometry N [2]: 6
